T1: AR (Homo sapiens, UniProt P10275)
T1 sequence (P10275 1-920): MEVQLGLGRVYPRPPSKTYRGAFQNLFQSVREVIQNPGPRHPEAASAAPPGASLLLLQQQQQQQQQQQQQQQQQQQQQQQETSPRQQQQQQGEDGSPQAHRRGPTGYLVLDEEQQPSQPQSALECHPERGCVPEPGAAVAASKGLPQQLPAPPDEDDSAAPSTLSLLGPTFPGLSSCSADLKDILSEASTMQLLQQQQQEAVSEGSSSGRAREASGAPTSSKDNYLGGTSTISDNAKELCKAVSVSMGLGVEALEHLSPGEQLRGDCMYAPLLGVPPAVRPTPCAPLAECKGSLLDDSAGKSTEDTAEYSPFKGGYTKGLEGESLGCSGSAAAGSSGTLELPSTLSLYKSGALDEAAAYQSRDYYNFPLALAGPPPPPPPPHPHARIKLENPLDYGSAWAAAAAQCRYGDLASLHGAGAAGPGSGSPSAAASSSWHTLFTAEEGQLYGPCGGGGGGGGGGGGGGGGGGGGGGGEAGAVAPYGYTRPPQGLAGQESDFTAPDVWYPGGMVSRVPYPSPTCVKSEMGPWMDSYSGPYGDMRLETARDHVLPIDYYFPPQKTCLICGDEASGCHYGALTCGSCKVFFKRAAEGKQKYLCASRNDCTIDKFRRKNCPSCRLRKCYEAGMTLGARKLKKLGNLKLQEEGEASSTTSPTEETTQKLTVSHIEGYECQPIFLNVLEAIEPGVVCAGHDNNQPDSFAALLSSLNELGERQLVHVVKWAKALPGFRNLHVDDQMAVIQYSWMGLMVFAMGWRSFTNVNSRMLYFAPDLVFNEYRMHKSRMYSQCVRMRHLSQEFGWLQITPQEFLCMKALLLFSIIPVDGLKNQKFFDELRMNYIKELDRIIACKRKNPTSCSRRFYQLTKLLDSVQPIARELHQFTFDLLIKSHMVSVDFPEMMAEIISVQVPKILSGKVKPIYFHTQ


Key:
AR [1] = molecular target: T1, AR; assay: Transrepressing activity of AR42 and AR32 in CV-1 cells (luciferase reporter, Example 5); type: cell-based; design: expressed in transfected cells; host or cells: CV-1 cells; conditions: constant amount of pSG5-AR, varying amounts of pSG5-AR42 or pSG5-AR32, after treatment with an androgen
Source text: (§1) A vector for the transient expression of AR42, AR32 or AR is built in the pSG5 plasmid (Stratagene). A constant amount of pSG5-AR and varying amounts of pSG5-AR42 or pSG5-AR32 are transfixed in CV-1 cells. In the control, a pSGS plasmid, which contains an irrelevant cDNA of similar length, is cotransfixed with the pSG5-AR. In addition, a reporter plasmid, which contains one or more copies of a steroid-response element or a selective androgen-response element, coupled to a luciferase reporter gene, is cotransfixed. After treatment with an androgen, an increase in the reporter gene activity is measured.

AR [2] = molecular target: T1, AR; assay: Transrepressing activity: pSG5-AR and different amounts of pSG5-AR42 co-transfixed in PC-3 cells with MMTV reporter plasmid; type: cell-based; design: expressed in transfected cells; conditions: 10 ng pSG5-AR, different amounts of pSG5-AR42, 100 ng MMTV reporter plasmid, R1881 10^-9 M
Protocol: 10 ng of pSG5-AR and different amounts of pSG5-AR42 were co-transfixed in PC-3 cells. In addition, 100 ng of a reporter plasmid, which contains the MMTV promoter, was transfixed.
as §1

[3] = system: MMTV promoter reporter plasmid in PC-3 cells; assay: Transactivation reporter assay: pSG5-AR42 co-transfixed with MMTV promoter reporter plasmid in PC-3 cells, treated with androgens; type: cell-based, human; conditions: 100 ng pSG5-AR42 + 100 ng MMTV reporter plasmid, R1881, testosterone or DHT at 10^-7 M
Protocol: 100 ng of pSG5-AR42 was co-transfixed in PC-3 together with 100 ng of a reporter plasmid, which contains the MMTV promoter. These cells were then treated with various androgens (R1881: metribolone; T: testosterone; DHT: 5α-dihydrotestosterone) with a final concentration of 10^−7 M.
A vector for the transient expression of AR42 or AR32 is built in the pSG5 plasmid (Stratagene). This vector is transfixed in CV-1 or PC-3 cells. Parallel to this, a reporter plasmid that contains one or more copies of a steroid response element or a selective androgen response element, coupled to a luciferase reporter gene, is cotransfixed. To find specific effectors of AR42 or AR32, a high-throughput screening of substance banks is to be performed. Substances that trigger the activity of the reporter gene at a concentration of 10^−6 M or less are further processed. The search for receptor antagonists is performed in the presence of 10^−9 M androgen, e.g., R1881. Substances are selected that at least divide in half the androgen induction at a concentration of 10^−6 M or less.

Molecule | transrepressing activity (reporter gene activity of stimulated AR) (AR [1]) | transrepressing activity (reporter gene activity of stimulated AR) (AR [2]) | transactivating function (reporter gene activity) [3]
AR32: androgen receptor variant according to the invention with the amino acid sequence indicated in Seq ID NO 4 (protein, listed as Homo sapiens) MILWLHSLETARDHVLPIDYYFPPQKTCLICGDEASGCHYGALTCGSCKVFFKRAAEGKQKYLCASRNDCTIDKFRRKNCPSCRLRKCYEAGMTLGARKLKKLGNLKLQEEGEASSTTSPTEETTQKLTVSHIEGYECQPIFLNVLEAIEPGVVCAGHDNNQPDSFAALLSSLNELGERQLVHVVKWAKALPGFRNLHVDDQMAVIQYSWMGLMVFAMGWRSFTNVNSRMLYFAPDLVFNEYRMHKSRMYSQCVRMRHLSQEFGWLQITPQEFLCMKALLLFSINCERAASVHF | inhibit these transactivating effects of stimulated AR |  | 
AR42: androgen receptor variant according to the invention with the amino acid sequence indicated in Seq ID NO 2 (protein, listed as Homo sapiens) MILWLHSLETARDHVLPIDYYFPPQKTCLICGDEASGCHYGALTCGSCKVFFKRAAEGKQKYLCASRNDCTIDKFRRKNCPSCRLRKCYEAGMTLGARKLKKLGNLKLQEEGEASSTTSPTEETTQKLTVSHIEGYECQPIFLNVLEAIEPGVVCAGHDNNQPDSFAALLSSLNELGERQLVHVVKWAKALPGFRNLHVDDQMAVIQYSWMGLMVFAMGWRSFTNVNSRMLYFAPDLVFNEYRMHKSRMYSQCVRMRHLSQEFGWLQITPQEFLCMKALLLFSIIPVDGLKNQKFFDELRMNYIKELDRIIACKRKNPTSCSRRFYQLTKLLDSVQPIARELHQFTFDLLIKSHMVSVDFPEMMAEIISVQVPKILSGKVKPIYFHTQ | inhibit these transactivating effects of stimulated AR | inhibited the transactivating effects of stimulated AR | does not have any transactivating function
